The target in assay [1] is T1, APC9182-AA.
T1 chain: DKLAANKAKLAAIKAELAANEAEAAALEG
Briefly: two-hybrid library CCmax.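 Also: natural log of median RNA to DNA barcode read ratio; higher means stronger binding.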 The note with it: mean of both orientations.

In assay [2] the target is T2, APC2724-AA.
T2 chain: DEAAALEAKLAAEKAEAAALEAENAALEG
Briefly: two-hybrid library CCmax.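 Also: natural log of median RNA to DNA barcode read ratio; higher means stronger binding.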 The following applies: mean of both orientations.

For assay [3], the target named is T3, APC4100-AA.
T3 chain: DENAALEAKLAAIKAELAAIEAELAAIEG
Briefly: two-hybrid library CCmax.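 Also: natural log of median RNA to DNA barcode read ratio; higher means stronger binding.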 The following applies: mean of both orientations.

The target of assay [4] is T4, APC2556-AA.
T4 chain: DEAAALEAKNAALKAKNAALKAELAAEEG
Briefly: two-hybrid library CCmax.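 Also: natural log of median RNA to DNA barcode read ratio; higher means stronger binding.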 The following applies: mean of both orientations.

Assay [5] deals with T5, APC3265-AA.
T5 chain: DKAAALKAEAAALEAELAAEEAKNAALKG
Briefly: two-hybrid library CCmax.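 Also: natural log of median RNA to DNA barcode read ratio; higher means stronger binding.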 The note with it: mean of both orientations.

In assay [6] the target is T6, APC6088-AA.
T6 chain: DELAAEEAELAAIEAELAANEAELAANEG
Briefly: two-hybrid library CCmax.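 Also: natural log of median RNA to DNA barcode read ratio; higher means stronger binding.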 The note with it: mean of both orientations.

Assay [7] deals with T7, APC9141-AA.
T7 chain: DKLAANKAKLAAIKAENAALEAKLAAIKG
Briefly: two-hybrid library CCmax. The following applies: mean of both orientations.

In assay [8] the target is T8, APC2811-AA.
T8 chain: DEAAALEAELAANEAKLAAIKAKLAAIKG
Briefly: two-hybrid library CCmax. The note with it: mean of both orientations.

The target of assay [9] is T9, APC542-AA.
T9 chain: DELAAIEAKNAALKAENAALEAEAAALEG
Briefly: two-hybrid library CCmax. The following applies: mean of both orientations.

Assay [10] deals with T10, APC2474-AA.
T10 chain: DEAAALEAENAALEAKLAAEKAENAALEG
Briefly: two-hybrid library CCmax. The following applies: mean of both orientations.

The target of assay [11] is T11, APC5009-AA.
T11 chain: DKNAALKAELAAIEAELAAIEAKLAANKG
Briefly: two-hybrid library CCmax. The following applies: mean of both orientations.

The target in assay [12] is T12, APC2981-AA.
T12 chain: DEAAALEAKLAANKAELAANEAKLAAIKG
Briefly: two-hybrid library CCmax. The note with it: mean of both orientations.

Assay [13] deals with T13, APC3881-AA.
T13 chain: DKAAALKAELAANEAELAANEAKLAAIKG
Briefly: two-hybrid library CCmax. The following applies: mean of both orientations.

In assay [14] the target is T14, APC222-AA.
T14 chain: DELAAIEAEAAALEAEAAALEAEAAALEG
Briefly: two-hybrid library CCmax. The note with it: mean of both orientations.

The target of assay [15] is T15, APC1916-AA.
T15 chain: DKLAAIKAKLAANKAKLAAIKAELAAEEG
Briefly: two-hybrid library CCmax. The note with it: mean of both orientations.

Assay [16] has as its target T16, APC5531-AA.
T16 chain: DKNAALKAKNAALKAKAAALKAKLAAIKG
Briefly: two-hybrid library CCmax. The note with it: mean of both orientations.

The target in assay [17] is T17, APC1987-AA.
T17 chain: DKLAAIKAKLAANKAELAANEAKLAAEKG
Briefly: two-hybrid library CCmax. The note with it: mean of both orientations.

In assay [18] the target is T18, APC9806-AA.
T18 chain: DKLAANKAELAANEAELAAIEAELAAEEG
Briefly: two-hybrid library CCmax. The following applies: mean of both orientations.

Assay [19] has as its target T19, APC8401-AA.
T19 chain: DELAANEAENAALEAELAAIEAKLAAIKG
Briefly: two-hybrid library CCmax. The note with it: mean of both orientations.

For assay [20], the target named is T20, APC7524-AA.
T20 chain: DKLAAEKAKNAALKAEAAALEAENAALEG
Briefly: two-hybrid library CCmax. The note with it: mean of both orientations.

The target in assay [21] is T21, APC4336-AA.
T21 chain: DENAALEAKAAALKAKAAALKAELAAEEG
Briefly: two-hybrid library CCmax. The following applies: mean of both orientations.

Assay [22] addresses T22, APC3354-AA.
T22 chain: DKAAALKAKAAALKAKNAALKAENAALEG
Briefly: two-hybrid library CCmax. The note with it: mean of both orientations.

The target in assay [23] is T23, APC8516-AA.
T23 chain: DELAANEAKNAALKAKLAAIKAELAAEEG
Briefly: two-hybrid library CCmax. The following applies: mean of both orientations.

The target of assay [24] is T24, APC9291-AA.
T24 chain: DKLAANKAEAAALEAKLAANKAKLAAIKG
Briefly: two-hybrid library CCmax. The following applies: mean of both orientations.

The target in assay [25] is T25, APC2257-AA.
T25 chain: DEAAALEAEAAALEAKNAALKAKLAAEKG
Briefly: two-hybrid library CCmax. The following applies: mean of both orientations.

Assay [26] concerns the target T26, APC1242-AA.
T26 chain: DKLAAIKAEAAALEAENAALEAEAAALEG
Briefly: two-hybrid library CCmax.

Assay [27] concerns the target T27, APC2375-AA.
T27 chain: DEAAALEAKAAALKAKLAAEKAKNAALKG
Briefly: two-hybrid library CCmax. The note with it: mean of both orientations.

The target in assay [28] is T28, APC3323-AA.
T28 chain: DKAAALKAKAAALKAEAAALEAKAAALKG
Briefly: two-hybrid library CCmax. The note with it: mean of both orientations.

In assay [29] the target is T29, APC2543-AA.
T29 chain: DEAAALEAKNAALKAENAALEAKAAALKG
Briefly: two-hybrid library CCmax. The note with it: mean of both orientations.

The target in assay [30] is T30, P7SH.
T30 chain: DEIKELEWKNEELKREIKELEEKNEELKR
Briefly: two-hybrid library CCNG1.

Assay [31] concerns the target T31, P4SH.
T31 chain: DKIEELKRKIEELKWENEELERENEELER
Briefly: two-hybrid library CCNG1.

The target in assay [32] is T32, P5SH.
T32 chain: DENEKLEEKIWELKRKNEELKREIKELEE
Briefly: two-hybrid library CCNG1.

Assay [33] concerns the target T33, P6SH.
T33 chain: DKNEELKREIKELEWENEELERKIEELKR
Briefly: two-hybrid library CCNG1.

Assay [34] addresses T34, P8SH.
T34 chain: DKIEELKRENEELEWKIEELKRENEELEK
Briefly: two-hybrid library CCNG1.

This passage reports interaction score results from PMC10397247.

On to DKLAAIKAEAAALEAENAALEAEAAALEG [APC1242-AA], for which the interaction score was -1.34 in assay [1]; -1.96 in assay [2]; -1.76 in assay [3]; -1.73 in [4]; -1.56 in [5]; -1.12 in assay [6]. Further, the interaction score was -1.7 in assay [7]; -1.73 in [8]; -2.16 in assay [9]; -1.53 in assay [10]; -1.74 in assay [11]; -1.87 in [12]. The interaction score in assay [13] was -1.81; in assay [14] it was -1.71; in [15] it was -0.197; in assay [16], -1.83; in assay [17] it was -1.67; in assay [18], -1.43. The interaction score in assay [19] was -1.53; in assay [20] it was -1.82; in assay [21] it was -2.21; in assay [22] it was -1.74; in assay [23], -1.75; in assay [24], -1.76. The interaction score was -1.45 in assay [25]; -1.39 in assay [26]; -1.54 in [27]; -1.85 in assay [28]; -1.38 in [29].
With DKIEELKRKIEELKWENEELERENEELER [P4SH], the interaction score was -1.17 in assay [30]; -0.1 in assay [31]; -0.643 in assay [32]; -0.892 in assay [33]; -0.776 in assay [34].
